Data from PMC2175248.

Molecular target: myc–E4orf4 (adenovirus 2 (Ad2))
Assay: co-IP

In the case of “v-src (from UniProt P00524 1-526) (enzyme)”, the percent of v-src of the P2 fraction recovered in myc–E4orf4 immune complexes is reported as < 10%.
